Source: publication PMC7512017
Several values for one entry are separate records, joined by “and”; a condition that tells them apart may be missing. Equal values may be shown once.

Legend:
[1] = biological target: apo-CCP2 (C-terminal domain-like carotenoid protein 2 from Tolypothrix sp. PCC 7601, without carotenoid) (Tolypothrix sp. PCC 7601); experiment: SEC; analytical SEC on a Superdex 75 column; masses estimated with protein molecular weight standards
[2] = biological target: apo-CCP2 (C-terminal domain-like carotenoid protein 2 from Tolypothrix sp. PCC 7601, without carotenoid) (Tolypothrix sp. PCC 7601); experiment: SEC-MALS + other: SEC-SAXS; SEC-SAXS-MALS, Shodex KW802.5 column, 10 mM Na-phosphate pH 7.0, 100 mM NaCl, 20 °C; samples at 5 mg/mL (legend: apo tetramer sample 10 mg/mL); also run with reductant (5 mM TCEP)
[3] = biological target: holo-CCP2 (C-terminal domain-like carotenoid protein 2 from Tolypothrix sp. PCC 7601, with bound canthaxanthin) (Tolypothrix sp. PCC 7601); experiment: SEC; analytical SEC on a Superdex 75 column; masses estimated with protein molecular weight standards
[4] = biological target: holo-CCP2 (C-terminal domain-like carotenoid protein 2 from Tolypothrix sp. PCC 7601, with bound canthaxanthin) (Tolypothrix sp. PCC 7601); experiment: SEC-MALS + other: SEC-SAXS; SEC-SAXS-MALS, Shodex KW802.5 column, 10 mM Na-phosphate pH 7.0, 100 mM NaCl, 20 °C; samples at 5 mg/mL (legend: apo tetramer sample 10 mg/mL); also run with reductant (5 mM TCEP)

Row | stoichiometry N [1] | stoichiometry N [2] | stoichiometry N [3] | stoichiometry N [4] | Substance
1 | 2 and 4 | 2 and 3 and 4 |  |  | apo-CCP2 (C-terminal domain-like carotenoid protein 2 from Tolypothrix sp. PCC 7601, without carotenoid) (natural protein)
2 |  |  | 2 and 4 | 2 and 4 | holo-CCP2 (C-terminal domain-like carotenoid protein 2 from Tolypothrix sp. PCC 7601, with bound canthaxanthin) (natural protein)
